Experiments:
[1] = biological target: T1, HSV-1 POL (UL30 protein, catalytic subunit of the HSV-1 DNA polymerase) (HSV-1, UniProt P04293 1-1235); experiment: competition ELISA: peptide incubated with POL 15 min, then added to UL8-coated wells
T1 construct: mature; Purified from Sf cells infected with baculovirus AcUL30
T1 sequence (looked up): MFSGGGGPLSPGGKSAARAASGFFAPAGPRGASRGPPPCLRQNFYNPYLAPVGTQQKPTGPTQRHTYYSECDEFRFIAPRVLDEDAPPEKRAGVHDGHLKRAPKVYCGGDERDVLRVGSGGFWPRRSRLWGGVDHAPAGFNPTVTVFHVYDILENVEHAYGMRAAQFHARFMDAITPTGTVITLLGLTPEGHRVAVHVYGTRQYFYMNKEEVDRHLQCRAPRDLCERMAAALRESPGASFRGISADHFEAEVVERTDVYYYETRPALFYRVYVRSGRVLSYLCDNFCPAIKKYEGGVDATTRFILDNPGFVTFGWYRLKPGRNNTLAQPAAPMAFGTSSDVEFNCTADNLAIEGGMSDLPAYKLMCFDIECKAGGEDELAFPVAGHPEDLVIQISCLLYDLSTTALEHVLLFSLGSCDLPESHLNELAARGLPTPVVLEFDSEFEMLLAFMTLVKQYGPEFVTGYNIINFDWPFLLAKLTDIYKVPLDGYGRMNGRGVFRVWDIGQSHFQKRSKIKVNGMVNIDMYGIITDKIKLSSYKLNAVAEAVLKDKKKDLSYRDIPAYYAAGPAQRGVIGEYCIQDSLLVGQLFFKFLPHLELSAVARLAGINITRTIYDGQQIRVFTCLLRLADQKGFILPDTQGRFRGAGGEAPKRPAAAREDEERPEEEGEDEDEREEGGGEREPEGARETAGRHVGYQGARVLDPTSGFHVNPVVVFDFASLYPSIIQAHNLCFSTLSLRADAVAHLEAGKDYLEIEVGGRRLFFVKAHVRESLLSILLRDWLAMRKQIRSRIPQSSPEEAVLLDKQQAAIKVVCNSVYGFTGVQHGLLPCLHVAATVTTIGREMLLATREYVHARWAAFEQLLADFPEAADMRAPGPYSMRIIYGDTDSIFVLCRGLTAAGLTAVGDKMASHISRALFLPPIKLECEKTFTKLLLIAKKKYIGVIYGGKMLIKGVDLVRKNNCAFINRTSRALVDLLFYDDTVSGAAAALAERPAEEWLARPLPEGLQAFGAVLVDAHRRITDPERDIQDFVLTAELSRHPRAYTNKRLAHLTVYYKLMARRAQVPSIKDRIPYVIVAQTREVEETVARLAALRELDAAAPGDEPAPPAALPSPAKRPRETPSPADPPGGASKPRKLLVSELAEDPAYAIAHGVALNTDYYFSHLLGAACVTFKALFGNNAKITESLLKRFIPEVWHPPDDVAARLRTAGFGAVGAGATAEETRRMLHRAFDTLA

[2] = biological target: T1, HSV-1 POL (UL30 protein, catalytic …); experiment: competition ELISA: peptide incubated with POL, then added to UL8-coated wells; average of independent experiments
[3] = biological target: T1, HSV-1 POL (UL30 protein, catalytic …); experiment: competition ELISA of FIG. 7: peptide incubated with POL 15 min, then added to UL8-coated wells
[4] = biological target: T2, HCMV UL54 protein (HCMV DNA polymerase) (HCMV strain AD169, UniProt P08546 1-1242); experiment: ELISA, UL102 coated (0 to 0.4 µg), UL54 added (0 to 0.6 µg), detected with antiserum 144
T2 construct: mature; Purified from Sf cells infected with AcUL54
T2 sequence: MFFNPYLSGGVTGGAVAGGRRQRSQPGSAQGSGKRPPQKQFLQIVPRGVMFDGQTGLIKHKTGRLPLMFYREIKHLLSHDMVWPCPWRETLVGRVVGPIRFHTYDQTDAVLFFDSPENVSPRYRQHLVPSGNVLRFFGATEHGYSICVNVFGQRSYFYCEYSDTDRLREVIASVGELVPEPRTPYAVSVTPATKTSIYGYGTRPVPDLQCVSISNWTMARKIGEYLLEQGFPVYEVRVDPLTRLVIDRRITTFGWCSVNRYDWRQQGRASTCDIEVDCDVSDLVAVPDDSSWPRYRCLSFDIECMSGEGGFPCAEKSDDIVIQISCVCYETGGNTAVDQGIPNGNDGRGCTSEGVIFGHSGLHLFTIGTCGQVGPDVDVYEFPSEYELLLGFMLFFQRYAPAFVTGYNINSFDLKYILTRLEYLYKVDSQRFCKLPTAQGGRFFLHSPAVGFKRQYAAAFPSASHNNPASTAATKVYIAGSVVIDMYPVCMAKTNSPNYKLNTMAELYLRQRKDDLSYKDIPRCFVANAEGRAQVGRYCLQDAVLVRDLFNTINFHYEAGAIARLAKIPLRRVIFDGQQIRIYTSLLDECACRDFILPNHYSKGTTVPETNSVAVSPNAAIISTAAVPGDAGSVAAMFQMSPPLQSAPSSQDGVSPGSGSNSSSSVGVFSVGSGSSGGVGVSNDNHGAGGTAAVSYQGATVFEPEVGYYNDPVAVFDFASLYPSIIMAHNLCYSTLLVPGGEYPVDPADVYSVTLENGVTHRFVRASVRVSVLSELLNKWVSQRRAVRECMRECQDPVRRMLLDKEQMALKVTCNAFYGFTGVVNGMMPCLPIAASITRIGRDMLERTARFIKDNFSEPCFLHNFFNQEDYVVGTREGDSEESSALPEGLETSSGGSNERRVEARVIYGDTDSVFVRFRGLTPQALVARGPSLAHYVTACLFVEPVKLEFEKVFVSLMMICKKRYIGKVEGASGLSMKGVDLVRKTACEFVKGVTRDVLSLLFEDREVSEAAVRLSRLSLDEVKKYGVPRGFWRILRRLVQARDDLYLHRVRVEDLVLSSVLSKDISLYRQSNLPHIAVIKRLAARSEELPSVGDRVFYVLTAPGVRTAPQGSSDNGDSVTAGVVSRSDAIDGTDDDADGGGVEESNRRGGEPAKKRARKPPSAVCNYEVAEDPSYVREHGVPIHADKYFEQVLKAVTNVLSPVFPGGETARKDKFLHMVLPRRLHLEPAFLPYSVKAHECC

B1: Peptide 5 (Table 2), UL8 residues 722-750 (peptide)
peptide: VFTGVLAGVWGEGGKFVYPFDDKMSFLFA
notes: Synthetic peptide, C-terminal 29 amino acids of HSV-1 UL8
B1: binds [1].

B2: Peptide 7 (Table 2), UL8 amino acids 719-738 (peptide)
peptide: IELVFTGVLAGVWGEGGKFV
notes: Synthetic 20-residue peptide from HSV-1 UL8
Work on B2 yielded an IC50 [2] of 2250 nM and an IC50 [3] of roughly 1000 nM.

B3: HCMV UL102 protein (other)
chain: MTAQPPLHHRHHPYTLFGTSCHLSWYGLLEASVPIVQCLFLDLGGGRAEPRLHTFVVRGDRLPPAEVRAVHRASYAALASAVTTDADERRRGLEQRSAVLARVLLEGSALIRVLARTFTPVQIQTDASGVEILEAAPALGVETAALSNALSLFHVAKLVVIGSYPEVHEPRVVTHTAERVSEEYGTHAHKKLRRGYYAYDLAMSFRVGTHKYVLERDDEAVLARLFEVREVCFLRTCLRLVTPVGFVAVAVTDEQCCLLLQSAWTHLYDVLFRGFAGQPPLRDYLGPDLFETGAARSFFFPGFPPVPVYAVHGLHTLMRETALDAAAEVLSWCGLPDIVGSAGKLEVEPCALSLGVPEDEWQVFGTEAGGGAVRLNATAFRERPAGGDRRWLLPPLPRDDGDGENNVVEVSSSTGGAHPPSDDATFTVHVRDATLHRVLIVDLVERVLAKCVRARDFNPYVRYSHRLHTYAVCEKFIENLRFRSRRAFWQIQSLLGYISEHVTSACASAGLLWVLSRGHREFYVYDGYSGHGPVSAEVCVRTVVDCYWRKLFGGDDPGPTCRVQESAPGVLLVWGDERLVGPFNFFYGNGGAGGSPLHGVVGGFAAGHCGGACCAGCVVTHRHSSGGGGSGVGDADHASGGGLDAAAGSGHNGGSDRVSPSTPPAALGGCCCAAGGDWLSAVGHVLGRLPALLRERVSVSELEAVYREILFRFVARRNDVDFWLLRFQPGENEVRPHAGVIDCAPFHGVWAEQGQIIVQSRDTALAADIGYGVYVDKAFAMLTACVEVWARELLSSSTASTTACSSSSVLSSALPSVTSSSSGTATVSPPSCSSSSATWLEERDEWVRSLAVDAQHAAKRVASEGLRFFRLNA
notes: mature; Purified from Sf cells infected with AcUL102; The 873-residue form follows Smith and Pari (1995)
B3: binds [4].

From patent US20050164163A1 (MEDICAL RESEARCH COUNCIL, published 2005)
